Assay results reported in paper PMC4808492.
Like-named read-outs stand apart in the source and are kept apart here.

Columns and labels:
[1] = biological target: cation-independent M6P receptor (CI-MPR), on an affinity column (UniProt P08169); assay: CI-MPR affinity column
[2] = biological target: cation-independent M6P receptor (CI-MPR), on an affinity column (UniProt P08169); assay: CI-MPR affinity column; remark: listed apart in the source

Sequence of UniProt P08169 (P08169 45-2499): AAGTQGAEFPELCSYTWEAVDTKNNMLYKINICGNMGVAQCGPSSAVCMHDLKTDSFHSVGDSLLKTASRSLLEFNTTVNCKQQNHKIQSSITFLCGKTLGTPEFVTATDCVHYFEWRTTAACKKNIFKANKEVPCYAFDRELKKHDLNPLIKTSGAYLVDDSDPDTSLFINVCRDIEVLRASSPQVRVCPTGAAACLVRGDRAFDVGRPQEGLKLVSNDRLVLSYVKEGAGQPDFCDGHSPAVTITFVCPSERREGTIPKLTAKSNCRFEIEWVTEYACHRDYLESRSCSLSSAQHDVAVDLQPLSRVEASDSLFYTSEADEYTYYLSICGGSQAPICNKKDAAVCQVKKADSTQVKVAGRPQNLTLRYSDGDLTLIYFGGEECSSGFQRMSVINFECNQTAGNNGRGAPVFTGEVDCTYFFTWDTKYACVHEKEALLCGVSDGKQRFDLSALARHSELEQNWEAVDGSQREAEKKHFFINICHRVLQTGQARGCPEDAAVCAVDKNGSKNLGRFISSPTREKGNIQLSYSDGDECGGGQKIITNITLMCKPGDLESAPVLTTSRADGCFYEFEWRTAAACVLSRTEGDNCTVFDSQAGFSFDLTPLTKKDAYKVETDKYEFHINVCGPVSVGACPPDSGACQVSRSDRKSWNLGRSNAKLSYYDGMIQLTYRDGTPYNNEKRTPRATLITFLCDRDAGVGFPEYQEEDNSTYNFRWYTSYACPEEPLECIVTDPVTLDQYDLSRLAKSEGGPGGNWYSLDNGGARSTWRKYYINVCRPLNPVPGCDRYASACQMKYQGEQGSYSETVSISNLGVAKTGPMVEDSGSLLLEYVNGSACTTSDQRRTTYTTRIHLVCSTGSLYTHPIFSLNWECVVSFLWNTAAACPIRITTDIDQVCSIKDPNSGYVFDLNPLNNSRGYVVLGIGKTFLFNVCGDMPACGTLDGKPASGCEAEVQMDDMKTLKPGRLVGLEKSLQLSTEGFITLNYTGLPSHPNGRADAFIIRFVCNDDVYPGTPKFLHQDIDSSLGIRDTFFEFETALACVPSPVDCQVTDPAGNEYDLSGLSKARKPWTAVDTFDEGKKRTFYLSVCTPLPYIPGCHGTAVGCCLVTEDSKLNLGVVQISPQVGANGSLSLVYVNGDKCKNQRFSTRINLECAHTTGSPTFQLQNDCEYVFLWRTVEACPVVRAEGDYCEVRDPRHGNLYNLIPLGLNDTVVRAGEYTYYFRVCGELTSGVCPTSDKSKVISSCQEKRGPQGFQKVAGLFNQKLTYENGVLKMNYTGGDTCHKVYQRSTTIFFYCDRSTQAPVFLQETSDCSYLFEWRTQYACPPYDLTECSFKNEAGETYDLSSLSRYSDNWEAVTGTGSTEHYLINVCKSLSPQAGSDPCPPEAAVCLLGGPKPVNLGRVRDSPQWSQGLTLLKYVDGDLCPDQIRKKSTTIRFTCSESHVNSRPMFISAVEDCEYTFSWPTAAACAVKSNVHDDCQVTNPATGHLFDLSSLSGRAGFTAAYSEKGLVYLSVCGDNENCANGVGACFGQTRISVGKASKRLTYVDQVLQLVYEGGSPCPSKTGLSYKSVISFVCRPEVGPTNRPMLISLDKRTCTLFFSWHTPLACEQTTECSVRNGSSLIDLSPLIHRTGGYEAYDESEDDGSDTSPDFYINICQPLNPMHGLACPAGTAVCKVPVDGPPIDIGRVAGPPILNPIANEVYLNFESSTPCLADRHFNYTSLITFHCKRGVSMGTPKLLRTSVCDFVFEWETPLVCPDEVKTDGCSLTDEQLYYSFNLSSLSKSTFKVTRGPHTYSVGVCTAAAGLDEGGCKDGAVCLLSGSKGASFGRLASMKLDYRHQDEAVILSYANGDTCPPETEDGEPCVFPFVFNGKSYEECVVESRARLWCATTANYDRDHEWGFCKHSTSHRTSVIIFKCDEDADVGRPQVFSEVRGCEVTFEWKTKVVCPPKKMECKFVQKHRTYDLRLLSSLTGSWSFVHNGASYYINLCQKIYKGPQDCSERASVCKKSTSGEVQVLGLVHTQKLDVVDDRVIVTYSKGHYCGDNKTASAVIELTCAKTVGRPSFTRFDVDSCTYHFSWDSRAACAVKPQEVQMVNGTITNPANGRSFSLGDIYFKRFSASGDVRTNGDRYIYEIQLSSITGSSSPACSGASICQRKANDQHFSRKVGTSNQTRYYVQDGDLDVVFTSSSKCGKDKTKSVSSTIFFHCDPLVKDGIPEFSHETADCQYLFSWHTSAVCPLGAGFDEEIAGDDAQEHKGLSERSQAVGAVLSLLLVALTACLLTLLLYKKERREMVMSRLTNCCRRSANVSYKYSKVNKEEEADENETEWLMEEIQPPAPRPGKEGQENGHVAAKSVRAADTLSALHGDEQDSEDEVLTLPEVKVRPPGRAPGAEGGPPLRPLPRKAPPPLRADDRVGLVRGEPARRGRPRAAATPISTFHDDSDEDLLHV

“zebrafish cathepsin D (Ctsd) from MLII (gnptab morphant) embryos (enzyme)” was tested. Which percent of enzyme activity bound to the column [1] did it give?
The percent of enzyme activity bound to the column was 5%.

Which percent of enzyme activity bound to the column [2] does the source give for “zebrafish cathepsin D (Ctsd) from WT animals (enzyme)” here?
The percent of enzyme activity bound to the column was 24.2%.

And the percent of enzyme activity bound to the column [1]?
The percent of enzyme activity bound to the column was 16%.

Which percent of enzyme activity bound to the column [1] does the source give for “zebrafish cathepsin K (Ctsk) from MLII (gnptab morphant) embryos (enzyme)” here?
Its percent of enzyme activity bound to the column is 17.2%.

How did the percent of enzyme activity bound to the column [2] turn out when “zebrafish cathepsin K (Ctsk) from WT animals (enzyme)” was run?
Its percent of enzyme activity bound to the column is 93.1%.

What about the percent of enzyme activity bound to the column [1] of the same substance?
The percent of enzyme activity bound to the column was 86%.
